From patent US20200190204A1

Molecular target: hBAFF-R-GFP fusion protein on mouse fibroblast L cells (clone D2C) (human) (UniProt Q96RJ3)
Experiment: flow cytometry on BAFF-R-expressing D2C L cells, 0.5 µg recombinant BAFF/10^6 cells, anti-BAFF-PE; unstained cells 0.0217; in the signal plot the 0 ng trace peaks between 10^2 and 10^3, the unstained one at about 10^2

recombinant BAFF ligand (from UniProt Q9Y275 134-285)
gate number, percent of cells above the BAFF-PE line (no % sign printed): 59.6%
